# In patent publication US20200010554A1 (TUSK THERAPEUTICS, published 2020):
# Substitutions are numbered along the chain they refer to.
# B1: Antibody 18 (antibody, V domains shown)
# VH: QVQLVESGGGVVQPGGSLRLSCAVSGFSLTSYGIQWVRQAPGKGLEWVSVIWAGGSTNYNSALMSRFTISKDNSKSTLYLQMNSLRAEDTAVYYCARAYGYDGSWLAYWGQGTLVTVSS
# VL: EIVLTQSPATLSLSPGERATLSCRASSSVSYMHWYQQKPGQAPRPLIFATSNLASGIPARFSGSGSGTDFTLTISSLEPEDFAVYYCQQWSSNPPTFGGGTKLEIK
# notes: also called Ab18
# B2: Antibody 19 (antibody, V domains shown)
# VH: B1 VH
# VL: B1 VL with E1Q, F70Y
# notes: also called Ab19; Antibodyl9
# B3: Antibody 12 (antibody, V domains shown)
# VH: QVQLQESGPGLVKPSETLSLTCTVSGFSLTSYGIQWIRQPPGKGLEWIGVIWAGGSTNYNSALMSRVTISKDNSKNQFSLKLSSVTAADTAVYYCARAYGYDGSWLAYWGQGTLVTVSS
# VL: DIQMTQSPSSLSASVGDRVTITCRASSSVSYMHWYQQKPGKAPKPLIFATSNLASGVPSRFSGSGSGTDYTLTISSLQPEDFATYYCQQWSSNPPTFGGGTKLEIK
# notes: also called Ab12
# B4: Antibody 20 (antibody, V domains shown)
# VH: B1 VH
# VL: B3 VL
# notes: also called Ab20
# B5: Antibody 16 (antibody, V domains shown)
# VH: B3 VH with I37V, N76S
# VL: B3 VL
# notes: also called Ab16
# B6: Antibody 15 (antibody, V domains shown)
# VH: B3 VH with I37V, N76S
# VL: B1 VL with E1Q, F70Y
# notes: also called Ab15
# B7: Antibody 13 (antibody, V domains shown)
# VH: B3 VH
# VL: B3 VL with D1Q, M4L, A42S
# notes: also called Ab13
# B8: Antibody 17 (antibody, V domains shown)
# VH: B3 VH with I37V, N76S
# VL: B3 VL with D1Q, M4L, A42S
# notes: also called Ab17
# B9: Antibody 14 (antibody, V domains shown)
# VH: B3 VH with I37V, N76S
# VL: B1 VL
# notes: also called AB14
# B10: Antibody 21 (antibody, V domains shown)
# VH: B1 VH
# VL: B3 VL with D1Q, M4L, A42S
# notes: also called Ab21
# B11: chimeric 7G7B6 (antibody, V domains shown)
# VH: EVQLVESGGDLVQPRGSLKLSCAASGFTFSSYGMSWVRQTPDKRLELVATINGYGDTTYYPDSVKGRFTISRDNAKNTLYLQMSSLKSEDTAMYFCARDRDYGNSYYYALDYWGQGTSVTVSS
# VL: QIVLSQSPAILSASPGERVTMTCRASSSVSFMHWLQQKPGSSPKPWIYATSNLASGVSARFSGSGSGTSYSLTITRVEAEDAATYYCQQWSSNPPAFGGGTKLEIK
# notes: also called 7G7B6 chimeric antibody; 7g7B6ch
# B12: 7G7B6, mouse IgG2a anti-human CD25 antibody (antibody, V domains shown)
# VH: B11 VH
# VL: B11 VL
# notes: also called 7G76B; mouse anti-human CD25 clone 7G7B6
# B13: MA251ch (antibody, V domains shown)
# VH: QVQLKESGPGLVAPSQSLSITCTVSGFSLTSYGIQWVRQPPGKGLEWLGVIWAGGSTNYNSALMSRLSISKDNSKSQVFLKMNSLQTDDTAMYYCARAYGYDGSWLAYWGQGTLVTVSS
# VL: B11 VL with R18K, F31Y, L35Y, Y48F, S58P, T75N, A83D, A96T
# B14: MA251, mouse anti-human CD25 antibody (antibody, V domains shown)
# VH: B13 VH
# VL: B11 VL with R18K, F31Y, L35Y, Y48F, S58P, T75N, A83D, A96T
# notes: Mouse isotype (compared with a mouse IgG1 isotype control)
# B15: Antibody 5 (antibody, V domains shown)
# VH: EVQLVESGGGLIQPGGSLRLSCAASGFTLDSYGVSWVRQAPGKGLEWVGVTSSGGSAYYADSVKGRFTISRDNSKNTLYLQMNSLRAEDTAVYYCARDRYVYTGGYLYHYGMDLWGQGTLVTVSS
# VL: DIQMTQSPSSLSASVGDRVTITCRASQSISDYLAWYQQKPGKVPKLLIYAASTLPFGVPSRFSGSGSGTDFTLTISSLQPEDVATYYCQGTYDSSDWYWAFGGGTKVEI
# notes: compared with a human IgG1 isotype control
# Columns and labels:
# [1] = molecular target: T1, human CD25 expressed on cells (Karpas 299, SU-DHL-1, SR-786, in vitro differentiated Treg cells, PBMC) (human, UniProt P01589 22-272); assay: flow cytometry titration on Karpas 299 cells, AF647 secondary antibody [Figure 68 continued]
# T1 construct: also called CD25 expressing cells
# T1 sequence: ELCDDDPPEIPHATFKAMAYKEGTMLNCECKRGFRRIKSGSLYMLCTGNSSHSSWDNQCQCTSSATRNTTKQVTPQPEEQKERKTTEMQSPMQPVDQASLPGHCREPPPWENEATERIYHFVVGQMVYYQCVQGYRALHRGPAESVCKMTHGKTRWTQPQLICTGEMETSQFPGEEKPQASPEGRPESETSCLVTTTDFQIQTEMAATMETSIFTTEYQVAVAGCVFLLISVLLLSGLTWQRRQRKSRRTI
# [2] = molecular target: T1, human CD25 expressed on cells (Karpas …); assay: as above; remark: listed apart in the source
# [3] = molecular target: T1, human CD25 expressed on cells (Karpas …); assay: flow cytometry titration on Karpas 299 cells, AF647 secondary antibody
# [4] = molecular target: T1, human CD25 expressed on cells (Karpas …); assay: flow cytometry titration on Karpas 299 cells, AF647 secondary antibody [Figure 68 continued]; remark: listed apart in the source
# [5] = molecular target: T1, human CD25 expressed on cells (Karpas …); assay: as above; remark: listed apart in the source
# [6] = molecular target: T1, human CD25 expressed on cells (Karpas …); assay: flow cytometry titration on Karpas 299 cells, AF647 secondary antibody; remark: listed apart in the source
# [7] = molecular target: T1, human CD25 expressed on cells (Karpas …); assay: as above; remark: listed apart in the source
# [8] = molecular target: T1, human CD25 expressed on cells (Karpas …); assay: flow cytometry titration on Karpas 299 cells, AF647 secondary antibody [Figure 68 continued]; remark: listed apart in the source
# [9] = molecular target: T1, human CD25 expressed on cells (Karpas …); assay: flow cytometry titration on Karpas 299 cells, AF647 secondary antibody; remark: listed apart in the source
# [10] = molecular target: T1, human CD25 expressed on cells (Karpas …); assay: flow cytometry titration on Karpas 299 cells, AF647 secondary antibody [Figure 68 continued]; remark: listed apart in the source
# [11] = molecular target: T1, human CD25 expressed on cells (Karpas …); assay: flow cytometry on Karpas 299 cells, MFI AF647
# [12] = molecular target: T1, human CD25 expressed on cells (Karpas …); assay: flow cytometry on SU-DHL-1 cells, Geo Mean Intensity
# [13] = molecular target: T2, recombinant human CD25 his tagged (human, UniProt P01589 22-213, limits assumed); assay: SPR, Biacore 2000: antibody captured on an anti-human antibody CM-5 chip, rhCD25 his tagged as analyte, 1:1 Langmuir fit
# T2 construct: also called rhCD25 his tagged; rhCD25; not shown: his tag
# T2 sequence: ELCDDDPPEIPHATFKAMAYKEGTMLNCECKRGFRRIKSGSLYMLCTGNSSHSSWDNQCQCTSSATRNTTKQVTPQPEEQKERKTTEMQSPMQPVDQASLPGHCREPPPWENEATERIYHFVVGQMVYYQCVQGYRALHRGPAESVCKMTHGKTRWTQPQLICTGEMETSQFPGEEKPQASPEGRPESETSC
# [14] = molecular target: T1, human CD25 expressed on cells (Karpas …); assay: flow cytometry on SR-786 cells, Geo Mean Intensity
# [15] = molecular target: T1, human CD25 expressed on cells (Karpas …); assay: flow cytometry on human in vitro differentiated Treg cells, MFI AF647
# [16] = molecular target: T2, recombinant human CD25 his tagged; assay: SPR, Biacore 2000: antibody captured on an anti-human antibody CM-5 chip, rhCD25 his tagged as analyte, 1:1 Langmuir fit; remark: listed apart in the source
# [17] = molecular target: T1, human CD25 expressed on cells (Karpas …); assay: flow cytometry on Karpas 299 cells, MFI AF647; remark: listed apart in the source
# [18] = molecular target: T2, recombinant human CD25 his tagged; assay: biolayer interferometry, Octet Red 96: antibody on AHC biosensor, rhCD25 his tagged 50 nM to 0.54 nM, global 1:1 fit [F]
binder,measurement,setting,value
B1,EC50 (read off the curve),[1],~0.3 µg/mL
B2,EC50 (read off the curve),[2],~0.3 µg/mL
B3,EC50 (read off the curve),[3],~0.3 µg/mL
B4,EC50 (read off the curve),[4],~0.2 µg/mL
B5,EC50 (read off the curve),[5],~0.2 µg/mL
B6,EC50 (read off the curve),[6],~0.3 µg/mL
B7,EC50 (read off the curve),[7],~0.2 µg/mL
B8,EC50 (read off the curve),[8],~0.2 µg/mL
B9,EC50 (read off the curve),[9],~0.3 µg/mL
B10,EC50 (read off the curve),[10],~0.2 µg/mL
B11,EC50 (read off the curve),[11],~1 µg/mL
same,EC50 (read off the curve),[12],~0.8 µg/mL
same,Kd,[13],6.7 nM
same,EC50 (read off the curve),[14],~0.9 µg/mL
B12,EC50 (read off the curve),[15],~1 µg/mL
B13,Kd,[16],6.6 nM
B14,EC50 (read off the curve),[17],~0.1 µg/mL
B15,Kd,[18],0.8 nM
